Measurements published in doi:10.1101/2024.06.20.599867 (bioRxiv, 2024).

Target: the molecule itself
Experiment: cryo-EM structure

B1: ABC transporter MsbA (His-tagged, E. coli) (natural protein)
chain: MHNDKDLSTWQTFRRLWPTIAPFKAGLIVAGVALILNAASDTFMLSLLKPLLDDGFGKTDRSVLVWMPLVVIGLMILRGITSYVSSYCISWVSGKVVMTMRRRLFGHMMGMPVSFFDKQSTGTLLSRITYDSEQVASSSSGALITVVREGASIIGLFIMMFYYSWQLSIILIVLAPIVSIAIRVVSKRFRNISKNMQNTMGQVTTSAEQMLKGHKEVLIFGGQEVETKRFDKVSNRMRLQGMKMVSASSISDPIIQLIASLALAFVLYAASFPSVMDSLTAGTITVVFSSMIALMRPLKSLTNVNAQFQRGMAACQTLFTILDSEQEKDEGKRVIERATGDVEFRNVTFTYPGRDVPALRNINLKIPAGKTVALVGRSGSGKSTIASLITRFYDIDEGEILMDGHDLREYTLASLRNQVALVSQNVHLFNDTVANNIAYARTEQYSREQIEEAARMAYAMDFINKMDNGLDTVIGENGVLLSGGQRQRIAIARALLRDSPILILDEATSALDTESERAIQAALDELQKNRTSLVIAHRLSTIEKADEIVVVEDGVIVERGTHNDLLEHRGVYAQLHKMQFGQ
binding result: binds
